In the nanobody polyreactivity screen of Harvey et al. (2022):

Assay: yeast display, Sf9 membrane polyspecificity reagent, FACS + sequencing; frameworks hold sequencing errors
In short: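 Synthetic nanobody libraries on Saccharomyces cerevisiae BJ5465 were galactose-induced for 36–48 hours, stained 1 hour at 4 °C with 10% biotinylated, detergent-solubilized Sf9 membrane reagent and enriched on streptavidin microbeads. FACS then separated cells into low and high (top ~1%) gates by anti-HA (expression) and streptavidin (reagent binding) fluorescence. Genes were colony-PCR amplified, MiSeq 2 × 250 sequenced and CDR-length filtered. A clone's polyreactivity label is that of its gate of origin.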

Row | Sequence | polyreactivity (PSR sort gate)
1 | QVQLVESGGGLVQAGGSLRLSCAASGSTFPQYAMGRYRQAPGKERELVAAISRSGGSTYYADSVKGRFTISRDNAKNTVYLQMNSLKPEDTAVYYCNVKSGFWFYPTMDYWGQGTQVTVSS | high polyreactivity
2 | QVQLVESGGGLVQAGGSLRLSCAASGSTFPRNAMGWYRQAAGKERELVAAISGRGVRTYYADSVKGRFTISRDNAKNTVYLQMNSLKPEDTAVHYCAAERQPYRTSSYNYWGQGTQVTVSS | high polyreactivity
3 | QVQLVESGGGLVQAGGSLRLSCAASGSTFPRNAMGWYRQAPGKDRELVAAISGSGGTTYYADSVKGRFTISRDNAKNTVYLQMNSLKPEDTAVYYCAARTSWAYPGGNYWGHGTQVTVSS | low polyreactivity
4 | QVQLVESGGGLVQAGGSLRLSCAASGSTFPRNAMGWYRQAPGKERELVAAISGRGVRTYYADSVKGRFTISRDNAKNTVHLQMNSLKPEDTAVYYCAASRGKGVGLAYDYWGQGTQVTVSS | high polyreactivity
5 | QVQLVESGGGLVQAGGSLRLSCAASGSTFPRNAMGWYRQAPGKERELVAAISRSGGSTYYADSVKGRFTISRDNAKNTVYLQINSLKPEDTAVYYCAASYYGLPRYRYEYWGQGTQVTVSS | high polyreactivity
6 | QVQLVESGGGLVQAGGSLRLSCAASGSTFPRNAMGWYRQAPGKERELVAAISYSGGRTYYADSVKGRLRISRDNAKNTVYLQMNSLKPDDTAVYYCAASPGVGDSRYYYWGQGTQVTVSS | high polyreactivity
7 | QVQLVESGGGLVQAGGSLRLSCAASGSTFPRNAMGWYRQAPGKERELVAGISRGSSTNYADSVKGRFTISRDNAKNTVYLQMNSLKPEDTAVYYCAAALSVTARLDYWGQGTQVTVSS | low polyreactivity
8 | QVQLVESGGGLVQAGGSLRLSCAASGSTFPRYAMGWYRQAPGKARELVAAINSSGSSTYYADSVKGRFTISRDNAKNTVYLQMNSLKPEDTAVYYCAAKARYRDYYYWGQGTQVTVSS | high polyreactivity
9 | QVQLVESGGGLVQAGGSLRLSCAASGSTFPRYAMGWYRQAPGKERELVAAISRSGTSTYYADSVKGRFTISRDNAKNTVYLQMNSLKPEDTAVYYCAAEYHPRVLYPNWYDYWGQGTQVTVSS | low polyreactivity
10 | QVQLVESGGGLVQAGGSLRLSCAASGSTFPRYAMGWYRQAPGKERELVAAISRSGTTTYYADSVKGRFTISRDNAKNTVYLQMNSLKPEDTAVYYCAKRHYARYDYWGQGTQVTVSS | high polyreactivity
11 | QVQLVESGGGLVQAGGSLRLSCAASGSTFPRYAMGWYRQAPGKERELVAAITYSGGRTYYADSVKGRFTISRDNAKNTVYLQMNSLKPEDTAVYYCAARYGPYRFNPMGYWGQGTQVTVSS | high polyreactivity
12 | QVQLVESGGGLVQAGGSLRLSCAASGSTFPRYAMGWYRQAPGKERELVASITSDGGSTYYADSVKGRFTISRDNAKNTVYLQMNSLKPEDTAVYYCNKVPYRGYRRYGYWGQGTQVTVSS | high polyreactivity
13 | QVQLVESGGGLVQAGGSLRLSCAASGSTFPSNAMGWYRQAPGKERELVAALSRGGTTNYADSVKGRFTISRDNAKNTVYLQMNCLKPEDTAVYYCAKVYKLYWYKAYRRDYWGQGTQVTVSS | high polyreactivity
14 | QVQLVESGGGLVQAGGSLRLSCAASGSTFPSYAMGWYRQAHGKERELVAAINSGGGTNYADSVKGRFTISRDNAKNTVYLQMHSLKPEDTAVYYCDKSRYDYTKTEGGYWGQATQVTVSS | low polyreactivity
15 | QVQLVESGGGLVQAGGSLRLSCAASGSTFPSYAMGWYRQAPGKERELVASITSSGGSTYYADSVKGRFTISRDNAKNTVYLQMNSLKPEDTAVYYCNARRYYYSWGREGGYWGQGTQVTVSS | low polyreactivity
16 | QVQLVESGGGLVQAGGSLRLSCAASGSTFPTYAMGRDRTAPGKEREMVAAIDWSDGSITYYADSVKGRFTISRDNAKNTVYLQMNSLKPEDTAVYYCAKDNSQYGWGYDYWGQGTQVTVSS | low polyreactivity
17 | QVQLVESGGGLVQAGGSLRLSCAASGSTFPTYSMGWYRQAPGKERELVAAITSGSGTNTYYADSVKGRFTISRDNAKNTVYLQMNSLKPEDTAVYYCAKSFRKKYGWGQGTQVTVSS | high polyreactivity
18 | QVQLVESGGGLVQAGGSLRLSCAASGSTFPVNAMGWYRQAPGKERELVAAISSRGSSTYYADSVKGRFTISRDNAKNTVYLQMNSLKPEDTAVYYCAAPQRYPRFYYWGQGTQVTVSS | high polyreactivity
19 | QVQLVESGGGLVQAGGSLRLSCAASGSTFPVNAMGWYRQAPGKERELVAAITYRDGDTYYADSVKGRFTISRDNAKNTVYLEMHSLKPEDTAVYYCNADVGRHGKNRHMDYWGQGTQVTVSS | low polyreactivity
20 | QVQLVESGGGLVQAGGSLRLSCAASGSTFPVNAMGWYRQAPGKERELVARIRGSGGSTYYADSVKGRFTISRDNAKNTVYLQMKSLKPEDTAVYYCAARYIGYSSYKYDYWGQGTQVTVSS | high polyreactivity
21 | QVQLVESGGGLVQAGGSLRLSCAASGSTFPVYAMGWYRQAPGKERELVAAISRSGASTYYAASVKGRFTISRDNAKNTVDLQMNSLKPDDTAVYYCARGYQGRLKYEYWGQGTQVTVSS | low polyreactivity
22 | QVQLVESGGGLVQAGGSLRLSCAASGSTFPVYAMGWYRQAPGKERELVASISSGGSTYYADSVKGRFTISRDNAKNTVYLQMNSLKPEDTAVYYCAKDPWVESFVIYDYWGQGTQVTVSS | low polyreactivity

Row | Sequence | polyreactivity (PSR sort gate)
23 | QVQLVESGGGLVQAGGSLRLSCAASGSTFPVYAMGWYRQAPGKERELVATISYSGGSTNYADSVKGRFTISRDNAKNTVYLQMNSLKPEDTAVYYCAKRYKRYVYWRSHGDYNYWGQGTQVTVSS | high polyreactivity
24 | QVQLVESGGGLVQAGGSLRLSCAASGSTFPVYTLGWYRQAPGKERELVAAISWRGTSTYADSVKGRFTISRDNGKNNVYLQMNRLIPEDTAVYYCAAGDTRGMDYWGQGTQVTVSS | high polyreactivity
25 | QVQLVESGGGLVQAGGSLRLSCAASGSTFPVYVMGWYRQAPGKERELVAAITRIGGSTYYADSVKGRFTISRDNAKNTVYLQMNSLKPEDTAVYYCAAGGTARDDSWGQGTQVTVSS | low polyreactivity
26 | QVQLVESGGGLVQAGGSLRLSCAASGSTFPWNAMGWYRQAPGKERELDAAIRTGGGRTYYADSVKGRFTISRDNAKNTVYLQMNSLKPEDTAVYYCNAYQSSGRYRNSYGYWGQGTQVTVSS | high polyreactivity
27 | QVQLVESGGGLVQAGGSLRLSCAASGSTFPWYAMVWYRQAPGKERELVAAIRWRGGSTYYADSVKGRFTISRDNAKNTVYLQMNSLKPEDTAVYYCAADPTYLRTLRFGSYDYWGQGTQVTVSS | high polyreactivity
28 | QVQLVESGGGLVQAGGSLRLSCAASGSTFPYAMGWYTQAPGKEREFVAAITRSGGSTYYADSVKGRFTISRDNAKNTVYLQMNSLKPEDTAVYYATQRCVWGYHYWGQGTQVTVSS | high polyreactivity
29 | QVQLVESGGGLVQAGGSLRLSCAASGSTFPYNAMGWYRQAPGKERELVAAITSDDTTNYADSVKGRFTISRDNAKNTVYLQMNSLKPEDTAVYYCAAEYRYPYLRGAGDYWGQGTQVTVSS | low polyreactivity
30 | QVQLVESGGGLVQAGGSLRLSCAASGSTFPYNAMGWYRQAPGKERELVAAITSSGRTNYADSVKGRFTISRDNAKNTDYLQMNSLKPEDTAVYYCAAVRWYAHRVDYWGQGTQVTVSS | low polyreactivity
31 | QVQLVESGGGLVQAGGSLRLSCAASGSTFPYNTMGWYRQAPGKEREFVAAITGDGGTTYYADSVKGRFTISRDNAKNTVYLQMNSLKPEDTAVYYCAVPYPAEGYGGDYWGQGSQVTVSS | low polyreactivity
32 | QVQLVESGGGLVQAGGSLRLSCAASGSTFPYNVMGWYRPAPGKERELVAAISYSGGNTYYADSVKGRFTISRDNAKNTVYLQMNSLKPEDTAVYYCAKARRGGRGSIKYDYWGQGTQVTVSS | high polyreactivity
33 | QVQLVESGGGLVQAGGSLRLSCAASGSTFPYPYTMGWYRQAPGKERELVAVISRTGGSTFYADSVKGRFTISRDNAKNTVYLQMNSLKPEDTAVYYCAARYAVGAHYDYWGQGTQVTVSS | high polyreactivity
34 | QVQLVESGGGLVQAGGSLRLSCAASGSTFPYYAMGWYRQAPGKEMELVASIRKRGGGTYYADSVKGRFTISRDNAKNTVYLQMNSLKPEDTAVYYCAVRVYQFRYTGYDYWGQGTQVTVSS | high polyreactivity
35 | QVQLVESGGGLVQAGGSLRLSCAASGSTFPYYAMGWYRQAPGKEREFVAAISYRGGSTYYADSVKGRFTISRDNAKNTVYLQMNSLKPEDTAVYYCAARSWQDRYANGYNYWGQGTQVTVSS | high polyreactivity
36 | QVQLVESGGGLVQAGGSLRLSCAASGSTFPYYAMGWYRQAPGKERELVAAITSGGSTNYADSVKGRFTISRDNAKNTVYLQMNSLKPEDTAVYYCNADTTYLSDYVTFDYWGQGTQVTVSS | low polyreactivity
37 | QVQLVESGGGLVQAGGSLRLSCAASGSTFPYYARGWYRQAPGKERELVAAITSGGSTNYADSVKGRFTISRDNAKNTVYLQMNSLKPEDTAVYYCAARLRYTTVIYYYWGQGTQVTVSS | high polyreactivity
38 | QVQLVESGGGLVQAGGSLRLSCAASGSTFPYYTMGGYRQAPGKERELVAAISWRGGSTYYADTVKGRFSISRDNAKNTVYLQMNSLKPEDTAVYYCAARYGVFGYDYWGQGTQVTVSS | high polyreactivity
39 | QVQLVESGGGLVQAGGSLRLSCAASGSTFQANDMGWYRQAPGKERELVAAISTGGSSTYYADSVKGRFTISRDNAKNTVYLQMNCLKPEDTAVYYCAVDGLGGREGYWGQGTQVTVSS | high polyreactivity
40 | QVQLVESGGGLVQAGGSLRLSCAASGSTFQENAMGWYRQAPGKEREFVAAISGSGGSTYYADSVKGRFTISRDNAKNTVYLQMNSLKPEDTAVYYCAARHYFRSRRRYDYWGQGTQVTVSS | low polyreactivity
41 | QVQLVESGGGLVQAGGSLRLSCAASGSTFQGNAMGWYRQAPGKERELVAAISKRGGSTYYADSVKGRFTISRDNAKNTVYLQMNSLKPEDTAVYFCNAKLFASRGYYFGGAYQYGYWGQGTQVTVSS | high polyreactivity
42 | QVQLVESGGGLVQAGGSLRLSCAASGSTFQGYAMGWYRQAPGKERELVAAISRSGSGTYYADSVKGRFTISRDNAKNTVYLQMNSLKPEDTAVYYCAKDDVRRSTSRHYYYWGHGTQVTVSS | high polyreactivity
43 | QVQLVESGGGLVQAGGSLRLSCAASGSTFQGYDMGWYRQAPGKERELVAAINYSGGSTYYADSVKGRFTISRDNAKNTVYLQLNSLKPEDTAVFYCNADGYSQFWYEYYYCGQGTQVTVSS | high polyreactivity
